Data as given in PMC12338864, “Modifications in FLAP's second cytosolic loop influence 5‐LOX interaction, inhibitor binding, and leukotriene formation” (Febs Letters, 2025).

Columns and labels:
FLAP(S41D) = molecular target: T1, FLAP(S41D) (human, UniProt P20292 1-161, S41D); assay: cell-based or functional assay
T1 sequence (looked up): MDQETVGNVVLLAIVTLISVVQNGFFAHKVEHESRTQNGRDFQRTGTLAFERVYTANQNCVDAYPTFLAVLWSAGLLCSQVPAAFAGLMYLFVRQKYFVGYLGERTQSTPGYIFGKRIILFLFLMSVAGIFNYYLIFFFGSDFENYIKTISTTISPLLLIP

FLAP(T109C) = molecular target: T2, FLAP(T109C) (human, UniProt P20292 1-161, T109C); assay: cell-based or functional assay
T2 sequence (looked up): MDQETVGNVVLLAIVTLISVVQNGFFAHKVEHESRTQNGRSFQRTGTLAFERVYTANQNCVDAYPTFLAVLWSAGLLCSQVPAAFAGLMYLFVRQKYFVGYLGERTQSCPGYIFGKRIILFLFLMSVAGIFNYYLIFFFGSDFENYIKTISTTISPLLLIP

FLAP(S108D) = molecular target: T3, FLAP(S108D) (human, UniProt P20292 1-161, S108D); assay: cell-based or functional assay
T3 sequence (looked up): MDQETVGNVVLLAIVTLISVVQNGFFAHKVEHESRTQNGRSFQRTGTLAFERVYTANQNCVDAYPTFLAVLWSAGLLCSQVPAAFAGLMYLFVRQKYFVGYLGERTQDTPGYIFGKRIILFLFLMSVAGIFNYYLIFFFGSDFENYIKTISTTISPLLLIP

FLAP(S108Δ) (human) = molecular target: T4, FLAP(S108Δ) (human) (UniProt P20292)
T4 sequence: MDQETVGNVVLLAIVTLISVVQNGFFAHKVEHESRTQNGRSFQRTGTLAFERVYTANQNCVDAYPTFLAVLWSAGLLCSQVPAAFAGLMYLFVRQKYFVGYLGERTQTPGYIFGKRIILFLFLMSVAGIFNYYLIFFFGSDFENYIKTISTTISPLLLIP

ratio of 5‐H(P)ETE to trans‐isomers of LTB4 formed in HEK293 cells co-expressing 5-LOX and the FLAP mutant (2.5 μM A23187 plus 2 μM AA, vehicle); wildtype about 1.2 (FLAP(S41D)): 2.3
ratio of 5‐H(P)ETE to trans‐isomers of LTB4 formed in HEK293 cells co-expressing 5-LOX and the FLAP mutant (2.5 μM A23187 plus 2 μM AA, vehicle); wildtype about 1.2 (FLAP(T109C)): 2.6
ratio of 5‐H(P)ETE to trans‐isomers of LTB4 formed in HEK293 cells co-expressing 5-LOX and the FLAP mutant (2.5 μM A23187 plus 2 μM AA, vehicle); wildtype about 1.2 (FLAP(S108D)): 2
ratio of 5‐H(P)ETE to trans‐isomers of LTB4 formed in HEK293 cells co-expressing 5-LOX and the FLAP mutant (2.5 μM A23187 plus 2 μM AA, vehicle); wildtype about 1.2 (FLAP(S108Δ) (human)): 3.2
B1: 5-lipoxygenase (enzyme, human, UniProt P09917 1-674, looked up)
chain: MPSYTVTVATGSQWFAGTDDYIYLSLVGSAGCSEKHLLDKPFYNDFERGAVDSYDVTVDEELGEIQLVRIEKRKYWLNDDWYLKYITLKTPHGDYIEFPCYRWITGDVEVVLRDGRAKLARDDQIHILKQHRRKELETRQKQYRWMEWNPGFPLSIDAKCHKDLPRDIQFDSEKGVDFVLNYSKAMENLFINRFMHMFQSSWNDFADFEKIFVKISNTISERVMNHWQEDLMFGYQFLNGCNPVLIRRCTELPEKLPVTTEMVECSLERQLSLEQEVQQGNIFIVDFELLDGIDANKTDPCTLQFLAAPICLLYKNLANKIVPIAIQLNQIPGDENPIFLPSDAKYDWLLAKIWVRSSDFHVHQTITHLLRTHLVSEVFGIAMYRQLPAVHPIFKLLVAHVRFTIAINTKAREQLICECGLFDKANATGGGGHVQMVQRAMKDLTYASLCFPEAIKARGMESKEDIPYYFYRDDGLLVWEAIRTFTAEVVDIYYEGDQVVEEDPELQDFVNDVYVYGMRGRKSSGFPKSVKSREQLSEYLTVVIFTASAQHAAVNFGQYDWCSWIPNAPPTMRAPPPTAKGVVTIEQIVDTLPDRGRSCWHLGAVWALSQFQENELFLGMYPEEHFIEKPVKEAMARFRKNLEAIVSVIAERNKKKQLPYYYLSPDRIPNSVAI
